# B1: endogenous DPP-IV purified from human semen (sDPP-IV) (protein)
# chain: SRKTYTLTDYLKNTYRLKLYSLRWISDHEYLYKQENNILVFNAEYGNSSVFLENSTFDEFGHSINDYSISPDGQFILLEYNYVKQWRHSYTASYDIYDLNKRQLITEERIPNNTQWVTWSPVGHKLAYVWNNDIYVKIEPNLPSYRITWTGKEDIIYNGITDWVYEEEVFSAYSALWWSPNGTFLAYAQFNDTEVPLIEYSFYSDESLQYPKTVRVPYPKAGAVNPTVKFFVVNTDSLSSVTNATSIQITAPASMLIGDHYLCDVTWATQERISLQWLRRIQNYSVMDICDYDESSGRWNCLVARQHIEMSTTGWVGRFRPSEPHFTLDGNSFYKIISNEEGYRHICYFQIDKKDCTFITKGTWEVIGIEALTSDYLYYISNEYKGMPGGRNLYKIQLSDYTKVTCLSCELNPERCQYYSVSFSKEAKYYQLRCSGPGLPLYTLHSSVNDKGLRVLEDNSALDKMLQNVQMPSKKLDFIILNETKFWYQMILPPHFDKSKKYPLLLDVYAGPCSQKADTVFRLNWATYLASTENIIVASFDGRGSGYQGDKIMHAINRRLGTFEVEDQIEAARQFSKMGFVDNKRIAIWGWSYGGYVTSMVLGSGSGVFKCGIAVAPVSRWEYYDSVYTERYMGLPTPEDNLDHYRNSTVMSRAENFKQVEYLLIHGTADDNVHFQQSAQISKALVDVGVDFQAMWYTDEDHGIASSTAHQHIYTHMSHFIKQCFSLP
# B2: recombinant wild-type human DPP-IV (rDPP-IV), amino acids 39 to 766, secreted from baculovirus-infected Hi5 insect cells (protein)
# chain: SRKTYTLTDYLKNTYRLKLYSLRWISDHEYLYKQENNILVFNAEYGNSSVFLENSTFDEFGHSINDYSISPDGQFILLEYNYVKQWRHSYTASYDIYDLNKRQLITEERIPNNTQWVTWSPVGHKLAYVWNNDIYVKIEPNLPSYRITWTGKEDIIYNGITDWVYEEEVFSAYSALWWSPNGTFLAYAQFNDTEVPLIEYSFYSDESLQYPKTVRVPYPKAGAVNPTVKFFVVNTDSLSSVTNATSIQITAPASMLIGDHYLCDVTWATQERISLQWLRRIQNYSVMDICDYDESSGRWNCLVARQHIEMSTTGWVGRFRPSEPHFTLDGNSFYKIISNEEGYRHICYFQIDKKDCTFITKGTWEVIGIEALTSDYLYYISNEYKGMPGGRNLYKIQLSDYTKVTCLSCELNPERCQYYSVSFSKEAKYYQLRCSGPGLPLYTLHSSVNDKGLRVLEDNSALDKMLQNVQMPSKKLDFIILNETKFWYQMILPPHFDKSKKYPLLLDVYAGPCSQKADTVFRLNWATYLASTENIIVASFDGRGSGYQGDKIMHAINRRLGTFEVEDQIEAARQFSKMGFVDNKRIAIWGWSYGGYVTSMVLGSGSGVFKCGIAVAPVSRWEYYDSVYTERYMGLPTPEDNLDHYRNSTVMSRAENFKQVEYLLIHGTADDNVHFQQSAQISKALVDVGVDFQAMWYTDEDHGIASSTAHQHIYTHMSHFIKQCFSLP
# B3: DPP-IV H750A mutant (protein)
# chain: SRKTYTLTDYLKNTYRLKLYSLRWISDHEYLYKQENNILVFNAEYGNSSVFLENSTFDEFGHSINDYSISPDGQFILLEYNYVKQWRHSYTASYDIYDLNKRQLITEERIPNNTQWVTWSPVGHKLAYVWNNDIYVKIEPNLPSYRITWTGKEDIIYNGITDWVYEEEVFSAYSALWWSPNGTFLAYAQFNDTEVPLIEYSFYSDESLQYPKTVRVPYPKAGAVNPTVKFFVVNTDSLSSVTNATSIQITAPASMLIGDHYLCDVTWATQERISLQWLRRIQNYSVMDICDYDESSGRWNCLVARQHIEMSTTGWVGRFRPSEPHFTLDGNSFYKIISNEEGYRHICYFQIDKKDCTFITKGTWEVIGIEALTSDYLYYISNEYKGMPGGRNLYKIQLSDYTKVTCLSCELNPERCQYYSVSFSKEAKYYQLRCSGPGLPLYTLHSSVNDKGLRVLEDNSALDKMLQNVQMPSKKLDFIILNETKFWYQMILPPHFDKSKKYPLLLDVYAGPCSQKADTVFRLNWATYLASTENIIVASFDGRGSGYQGDKIMHAINRRLGTFEVEDQIEAARQFSKMGFVDNKRIAIWGWSYGGYVTSMVLGSGSGVFKCGIAVAPVSRWEYYDSVYTERYMGLPTPEDNLDHYRNSTVMSRAENFKQVEYLLIHGTADDNVHFQQSAQISKALVDVGVDFQAMWYTDEDHGIASSTAHQAIYTHMSHFIKQCFSLP
# Biological target: P27487
row,Protein,specific activity after serial dilution (H-Gly-Pro-pNA hydrolysis)
1,B1,no decrease in specific activity were observed for either sDPP-IV or rDPP-IV even at a concentration as low as 1.6 nM
2,B2,no decrease in specific activity were observed for either sDPP-IV or rDPP-IV even at a concentration as low as 1.6 nM
3,B3,the specific activity of H750A protein was also constant over the range of 200 nM to 1.6 nM
